In patent US5789538:

Biological target: Zif268 finger 1 variant phage pool, CCTG selection round 5 finger 1 positions -1, 2, 3, 6 randomized (four NNS codons), pool (UniProt P08046)
Assay: SELEX
Conditions: [none], phage display pool, no enrichment, 0.45 M NaCl washes, 10 uM ZnCl2, 5 mM MgCl2

Sequence: CTGAGCGTGGCCTGAGTGATCGATC / CACTCAGGCCACGCTCAG [CCTG duplex]
- activity (% phage retention): < 0.001
